Patent publication US7799901B2, “Modulators of the function of FAS receptors and other proteins” (Yeda Research and Development Co. Ltd., priority 1995, dated 2010)
“Also recorded” adds a separate entry of the source.

Columns and labels:
MORT1 [1] = biological target: T1, MORT1 (Homo sapiens, UniProt Q13158); test: Co-immunoprecipitation with co-expressed MORT1 from HeLa cell lysates; format: binding; set-up: expressed in transfected cells; host or cells: HeLa cells; details: HeLa cells; FLAG-tagged MACH, HA-tagged MORT1
T1 sequence (Q13158 1-208): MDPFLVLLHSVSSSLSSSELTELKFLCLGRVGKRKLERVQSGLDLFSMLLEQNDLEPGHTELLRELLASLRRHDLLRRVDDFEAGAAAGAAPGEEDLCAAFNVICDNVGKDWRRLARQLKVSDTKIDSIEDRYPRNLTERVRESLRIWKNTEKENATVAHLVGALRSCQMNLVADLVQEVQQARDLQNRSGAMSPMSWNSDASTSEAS
From the text: It has been shown also to contribute to, though not to suffice in, the self association of MORT-1 (see Example 1). […] To further assess the involvement of the MORT modules in these interactions, deletion mutants of MACHβ1, fused with the FLAG octapeptide (FLAG-MACHβ1), were expressed in HeLa cells and assessed for their binding in vitro to bacterial-produced […] fusion protein (GST-MORT-1). […] FIGS. 9A and 9B show the results (autoradiograms) of the in vitro interaction of MACHβ1 and its deletion mutants with MORT-1. Briefly, 35 [S] metabolically labeled MACHβ1, MACHβ1 fused at its N-terminus to the FLAG octapeptide (FLAG-MACHβ1), C-terminus truncation mutants of FLAG-MACHβ1, and, as a control, luciferase, were produced in transfected HeLa cells. […]
Testing further if MACHα1 can bind to MORT1 also within mammalian cells, MACHα1 or MACHβ1, fused with the FLAG octapeptide was expressed, together with HA epitope-tagged MORT1 molecules. ^35[S] metabolically labeled MACHα1 and MACHβ1 fused at their N-termini to the FLAG octapeptide (FLAG-MACHα1 and β1), and MORT1 fused at its N terminus to the HA epitope (Field et al, 1988) were expressed in HeLa cells. […] The proteins were analyzed by SDS-polyacrylamide gel electrophoresis (12% acrylamide), followed by autoradiography. […]

yeasts = test: Cytotoxic effect on transfected yeasts (yield of colonies); format: cell-based, yeast; details: decrease in the yield of colonies; activation domain vector
From the text: To find out if MACHα1 can bind to MORT1, as does MACHβ1, the interaction of the proteins within transfected yeasts was first examined. […] This effect was manifested in a marked decrease in the yield of colonies in yeasts that expressed the protein in the activation domain (AD) vector (whose expression level is higher than that of the DNA binding domain (DBD) vector). On the other hand, […] in which the catalytic cysteine residue, Cys360, was replaced with Ser (MACHα1 (C360S)) was not cytotoxic to either mammalian cells (see below), or yeast. Like MACHβ1, MACHα1 (C360S) bound in tranfected yeast to MORT-1 and also to itself. It also bound to MACHβ1. […] The intensity of the lacZ-product color varied, however, among the yeast colonies; in yeasts tranfected with MACHα1 in both the AD and the DBD vectors no color product was observed, probably because of the cytotoxic effect of the wild-type MACHα1.

HeLa cells = test: Cell death on overexpression of MACH isoforms in HeLa cells; format: cell-based; details: FIG. 19
Description: In brief, 293-EBNA cells, MCF7 human breast carcinoma cells and HeLa HtTA-1 cells were grown in Dulbecco's modified Eagle's minimal essential medium supplemented with 10% fetal calf serum, nonessential amino acids, 100 U/ml penicillin and 100 μg/ml streptomycin. Cell tissue culture dishes (5×10^5 293-EBNA cells, 3×10^5 s MCF7 cells or 3×10^5 HeLa cells in 6-cm dishes) were transiently transfected, using the calcium phosphate precipitation method, with the cDNAs of the indicated proteins together with the β-galactosidase expression vector. In the experiments presented in FIGS. 14A-D and 15, each dish was transfected with 3.5 μg of the indicated MACH construct and 1.5 μg of pSV-β-gal. In the experiments presented in FIGS. 16A-D and 17-19, each dish was transfected with 2.5 μg of the indicated MACH or MORT1 construct (or, as control, empty vector) and 1.5 μg of pSV-β-gal. The cells were rinsed 6 to 10 h after transfection. The 293-EBNA and MCF7 cells were incubated for a further 18 h without additional treatment. The HeLa cells were incubated for 26 h after transfection and-then for 5 h in the presence of either anti-Fas.APO1 antibody (CH11, 0.5 μg/ml) or TNF (100 ng/ml), together with cycloheximide (10 μg/ml). The extent of cell death at the end of the incubation periods was assessed by determination of β-galactosidase expression, as described by Kumar et al, 1994.
To examine the involvement of the CED3/ICE homology region within the MACHα isoforms in their apoptopic effects, cells were transfected with the expression vector for the MACHβ1 isoform, which lacks the CED3/ICE homology region, as well as with expression vectors for MACHα3, which lacks an N-terminal part of the region, and with expression vectors for MACHα1 (C360S) and for a C-terminally truncated mutant of MACHα1 (MACHα1 (1-415)), which lacks one of the residues believed to be critical for CED3/ICE protease function (corresponding to Ser347 in ICE). […]

MORT1 [2] = biological target: T1, MORT1; test: Co-immunoprecipitation with MORT-1 from 293-EBNA cell lysates; format: binding; set-up: expressed in transfected cells; host or cells: 293-EBNA; HeLa (detail in the same paragraph); details: lysates of human embryonic kidney 293-EBNA cells
Description: Testing further if MACHα1 can bind to MORT1 also within mammalian cells, MACHα1 or MACHβ1, fused with the FLAG octapeptide was expressed, together with HA epitope-tagged MORT1 molecules. ^35[S] metabolically labeled MACHα1 and MACHβ1 fused at their N-termini to the FLAG octapeptide (FLAG-MACHα1 and β1), and MORT1 fused at its N terminus to the HA epitope (Field et al, 1988) were expressed in HeLa cells. Immunoprecipitation of the proteins from lysates of the cells was performed using mouse monoclonal antibodies against the FLAG octapeptide (M2; Eastman Kodak), HA epitope (12CA5, Field et al, 1988) or the p75 TNF receptor (#9, Bigda et al, 1994) as a control. The proteins were analyzed by SDS-polyacrylamide gel electrophoresis (12% acrylamide), followed by autoradiography. […] The effectivity of interaction of MACHα1 with MORT1 appeared to be lower than that of MACHβ1.

MACHα1: MACH isoform, cDNA SEQ ID NO: 14, amino acid SEQ ID NO: 7; contains CED3/ICE homology region
binding to co-expressed MORT1 (co-immunoprecipitation) (MORT1 [1]): co-immunoprecipitated
cytotoxic effect on yeasts (yeasts): significant cytotoxic effect

B1: MACHβ1: MACH isoform, cDNA SEQ ID NO: 4, amino acid SEQ ID NO: 5; lacks the CED3/ICE homology region (protein)
chain: MDFSRNLYDIGEQLDSEDLASLKFLSLDYIPQRKQEPIKDALMLFQRLQEKRMLEESNLSFLKELLFRINRLDLLITYLNTRKEEMERELQTPGRAQISAYRVMLYQISEEVSRSELRSFKFLLQEEISKCKLDDDMNLLDIFIEMEKRVILGEGKLDILKRVCAQINKSLLKIINDYEEFSKERSSSLEGSPDEFSNDFGQSLPNEKQTSGILSDHQQSQFCKSTGESAQTSQH
binding to co-expressed MORT1 (co-immunoprecipitation) (MORT1 [1]): bound; also recorded: co-immunoprecipitated
cytotoxicity in transfected HeLa cells (HeLa cells): more pronounced; also recorded: rather significant cytoxic effect
coimmunoprecipitation with MORT-1 (MORT1 [2]): coimmunoprecipitated

B2: MACHα1 (C360S): MACHα1 mutant in which the catalytic cysteine Cys360 is replaced by Ser (protein)
chain: MDFSRNLYDIGEQLDSEDLASLKFLSLDYIPQRKQEPIKDALMLFQRLQEKRMLEESNLSFLKELLFRINRLDLLITYLNTRKEEMERELQTPGRAQISAYRVMLYQISEEVSRSELRSFKFLLQEEISKCKLDDDMNLLDIFIEMEKRVILGEGKLDILKRVCAQINKSLLKIINDYEEFSKERSSSLEGSPDEFSNGEELCGVMTISDSPREQDSESQTLDKVYQMKSKPRGYCLIINNHNFAKAREKVPKLHSIRDRNGTHLDAGALTTTFEELHFEIKPHDDCTVEQIYEILKIYQLMDHSNMDCFICCILSHGDKGIIYGTDGQEAPIYELTSQFTGLKCPSLAGKPKVFFIQASQGDNYQKGIPVETDSEEQPYLEMDLSSPQTRYIPDEADFLLGMATVNNCVSYRNPAEGTWYIQSLCQSLRERCPRGDDILTILTEVNYEVSNKDDKKNMGKQMPQPTFTLRKKLVFPSD
cytotoxicity in transfected HeLa cells (HeLa cells): somewhat cytotoxic
cytotoxic effect on yeasts (yeasts): not cytotoxic
coimmunoprecipitation with MORT-1 (MORT1 [2]): coimmunoprecipitated
